The source of these data is article doi:10.1101/655696.

Test [1] addresses pre-30S particles from the ΔrbfA strain (BX41) (E. coli (endogenous in BX41)). In words: ultrafiltration assay.
The target in test [2] is mature 30S ribosomal subunit (MRE600) (E. coli (endogenous in MRE600)) (UniProt P0AG67). In words: ultrafiltration assay.
Test [3] has the same target. As to the kind of experiment: co-sedimentation + other: ultrafiltration assay.
The target is the same in test [4]. In words: co-sedimentation.

For “Cy3-IF3 (from UniProt P0A707 1-180) (natural protein)”, the figures for the average fold change in bound IF3 over background in test [1] and in test [2] were 1.9 fold and 2.2 fold, respectively.

Take “Cy5-RbfA (ribosome binding factor A labelled with Cy5 at position 2) (from UniProt P0A7G2 1-133) (natural protein)”: in test [1], the half-life of the complex is > 60 min. Further, in test [3], the t1/2 of the complex was > 30 min.

As for “Initiation factor 3 (IF3), wild type (from UniProt P0A707 1-180) (natural protein)”, in test [4], the decrease of Cy5-RbfA fluorescence in the pelleted fraction with 4 µM IF3 was > 80%.
